# Test results published in the supplement of paper PMC7125110.
# ± gives the standard error. This sample holds only a part of the variants without activity.
# B1: glmS ribozyme (parent)
# chain: AUAAAAGCGCCAGAACUACAGAAAUGUAGUUGACGAGGAGGAGGUUUAUCGAAUUUUCGGCGGAUGCCUCCAAA
# What was measured:
# Details in all cases: with glucosamine-6-phosphate
# glucosamine-6-phosphate [1] = variants of: B1; assay: self-cleavage kobs at 40 uM GlcN6P; higher = faster cleavage; RNA array
# Summary of the method: (§1)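 A hybridised Cy3 probe tracked barcoded ribozyme variants, transcribed in situ by E. coli RNA polymerase on sequenced MiSeq chips, at 37 °C. The variants received 40 μM to 10 mM glucosamine-6-phosphate in HEPES/KCl/Mg(OAc)2 buffer. kobs came from decay fits and kcat and KM from weighted Michaelis–Menten fits.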
# glucosamine-6-phosphate [2] = variants of: B1; assay: self-cleavage kobs at 160 uM GlcN6P; higher = faster cleavage; RNA array
# Summary of the method: as §1
# glucosamine-6-phosphate [3] = variants of: B1; assay: self-cleavage kobs at 640 uM GlcN6P; higher = faster cleavage; RNA array
# Summary of the method: as §1
# glucosamine-6-phosphate [4] = variants of: B1; assay: self-cleavage kobs at 2500 uM GlcN6P; higher = faster cleavage; RNA array
# Summary of the method: as §1
# glucosamine-6-phosphate [5] = variants of: B1; assay: self-cleavage kobs at 10000 uM GlcN6P; higher = faster cleavage; RNA array
# Summary of the method: as §1
Variant,self-cleavage kobs at 40 uM GlcN6P (glucosamine-6-phosphate [1]),self-cleavage kobs at 160 uM GlcN6P (glucosamine-6-phosphate [2]),self-cleavage kobs at 640 uM GlcN6P (glucosamine-6-phosphate [3]),self-cleavage kobs at 2500 uM GlcN6P (glucosamine-6-phosphate [4]),self-cleavage kobs at 10000 uM GlcN6P (glucosamine-6-phosphate [5])
AUAAAAGCGGCAGAACUACAGAAAUGUAGUUGACGAGGAGGGGGUUUAUCGAAUUUUCGGCGGAUGCCUCCAAA,< 1e-05 s⁻¹,< 1e-05 s⁻¹,< 1e-05 s⁻¹,–,–
AUAAAAGCGGCAGAACUACAGAAAUGUAGUUGACGAGGAGGCGGUUUAUCGAAUUUUCGGCGGAUGCCUCCAAA,< 1e-05 s⁻¹,–,–,–,–
AUAAAAGCGGCAGAACUACAGAAAUGUAGUUGACGAGGAGGAGGUUUAUCGACUUUUCGGCGGGUGCCUCCAAA,< 1e-05 s⁻¹,< 1e-05 s⁻¹,< 1e-05 s⁻¹,< 1e-05 s⁻¹,< 1e-05 s⁻¹
AUAAAAGCGACAGAACUACAGAAAUGUAGUUGUCGAGGAGGAGGUUUAUCGAAUUUUCGGCGGAUGCCUCCAAA,< 1e-05 s⁻¹,–,–,–,< 1e-05 s⁻¹
AUAAAAGCGACAGAACUACAGAAAUGUAGGUGACGAGGUGGAGGUUUAUCGAAUUUUCGGCGGAUGACUCCAAA,< 1e-05 s⁻¹,–,–,–,–
AUAAAAGCGACAGAACUACAGAAAUGUAGUUCACGAGGAGAAGGUUUAUCGAAUUUUCGGCGGAUGCCUCCAAA,< 1e-05 s⁻¹,–,–,–,–
AUAAAAGCGACAGAACUACAGAAAUGUAGUUGACGAGGAGGAGGUUUAUCGAAUUUUCGGCGGAUUCCUCCAAA,< 1e-05 s⁻¹,< 1e-05 s⁻¹,–,–,–
AUAAAAGCGACAGAACUACAGAAAUGUAGCUGACGAGGAGGAGGUUUAUCGAAUUUUCGGCGGAUGCCUCCAAA,< 1e-05 s⁻¹,< 1e-05 s⁻¹,< 1e-05 s⁻¹,< 1e-05 s⁻¹,< 1e-05 s⁻¹
AUAAAAGCGAGAGAACUACAGAAAUGUAGUUGACGAGGAGGAGGUUUAUCGAAUUUUCGGCGGAUGCCUCCAAA,< 1e-05 s⁻¹,< 1e-05 s⁻¹,< 1e-05 s⁻¹,–,–
AUAAAAGCGGCAGAACUACAGAAAUGUAGUUGACGAGGAGGAGGUUUAUCGGAUUUUCGGCGGAUGCCUCCAAA,< 1e-05 s⁻¹,–,–,< 1e-05 s⁻¹,< 1e-05 s⁻¹
AUAAAAGCGACAGAACUACAGAAAUGUAGUUGACGAGGAGGAGGUUUAUCGAAUUUUCGGAGGAUGGCUCCAAA,4.33e-05 ± 1.9e-05 s⁻¹,–,–,–,–
AUAAAAGCGACAUAACUACAGAAAUGUAGUUGACGAUGAGGAGGUUUAUCGAAUUUUCGACGGAAGCCUCCAAA,< 1e-05 s⁻¹,–,< 1e-05 s⁻¹,–,< 1e-05 s⁻¹
AUAAAAGCGACAGAACUACAGAAAUGUAGUUGACGAGGAUAAGGUUUAUCGAAUUUUCGGCGGAUGCCUACAAA,< 1e-05 s⁻¹,–,–,–,< 1e-05 s⁻¹
AUAAAAGCGACAGAACUACAGAAAUGUAGUUGACGAGGAGGAGGUUUAUCGAAUUUUCGGCUGAUGCCUCCAAA,< 1e-05 s⁻¹,< 1e-05 s⁻¹,–,–,< 1e-05 s⁻¹
AUAAAAGCGACAGAACUACAGAAAUGUAGUUGACGAGGAUGAGGUUUAUCGAACUUUCGGCGGAUGCCUCCAAA,< 1e-05 s⁻¹,–,–,–,< 1e-05 s⁻¹
AUAAAAGCGGCAGAACUACAGAAAUGUAGUUGUCGAGGAGGAUGUUUAUCGAAUUUUCGGCGCAUGCCUCGAAA,< 1e-05 s⁻¹,–,–,–,–
AUAAAAGCGGCAGAACUACAGAAAUGUAGUUGGCGAGGAGGAGGUUUAUCGUAUUUUUGGCGGUUGCCUCCAAA,< 1e-05 s⁻¹,–,–,–,–
AUAAAAGCGGCAGCACUACAGAAAUGUAGUUGACGAGGAGGAGGUUUAUCGAAUUUUCGGCGGAUGCCUCCAAA,< 1e-05 s⁻¹,–,–,–,< 1e-05 s⁻¹
AUAAAAGCGACAGAACUACAGAAAUGUAGUUGACGAGUAAGAGGUUUAUCGAAUUUUCGGCGGAUGCCUCCAAA,< 1e-05 s⁻¹,< 1e-05 s⁻¹,< 1e-05 s⁻¹,< 1e-05 s⁻¹,< 1e-05 s⁻¹
AUAAAAGCGACAGAACUACAGAAAUGUAGUUGACGAGAAGGAGGUUUAUCGAUUUUUCGGCGGAUGCAUCCAAA,< 1e-05 s⁻¹,–,–,–,–
AUAAAAGCGACAGAACUACAGAAAUGUAGUUGACGAGGAGGAGGGUUAUCGAGUUUUCGGCGGAUGCCUCCAAA,< 1e-05 s⁻¹,–,–,–,–
AUAAAAGCGACAGAACUACAGAAAUGUAGUUGACGAGGAGGAGGUUUAUCGAAUUUUCGGCGGAUGCCUGCAAA,2.53e-05 ± 1e-05 s⁻¹,–,0.000116 ± 1.8e-05 s⁻¹,–,–
AUAAAAGCGACAGAACUACAGAAAUGUAGUUGACGAGGAGGAGGUUGAUCGAAUUUUCGGCGAAUGCCUCCAAA,< 1e-05 s⁻¹,–,–,–,< 1e-05 s⁻¹
AUAAAAGCGACAGAACUACAGAAAUGUAGUUGACGAGGACGAGGUUUAUCGAAUUUUCGGCGGAUGCCUCCAAA,< 1e-05 s⁻¹,< 1e-05 s⁻¹,< 1e-05 s⁻¹,–,< 1e-05 s⁻¹
AUAAAAGCGACAGAACUACAGAAAUGUAGUUGACGAGGAAGAGGUUUAUCGAAUUUUCGGCGGAUGCCUCCAAA,< 1e-05 s⁻¹,< 1e-05 s⁻¹,< 1e-05 s⁻¹,< 1e-05 s⁻¹,< 1e-05 s⁻¹
AUAAAAGCGGCAGAACUACAGAAAUGUAGUUGACGAGGAGGAGGUUUUUCGAAUUUUCGGCGGAUGCCUCCAAA,< 1e-05 s⁻¹,< 1e-05 s⁻¹,< 1e-05 s⁻¹,< 1e-05 s⁻¹,< 1e-05 s⁻¹
AUAAAAGCGGCAGAACUACAGAAAUGUAGUUGACGCGGAGGACGUUUAUCGAAUUUUCGGCGGAUGCCUCCAAA,< 1e-05 s⁻¹,–,< 1e-05 s⁻¹,–,< 1e-05 s⁻¹
AUAAAAGCGGCAGAACUACAGAAAUGUAGUUGACGAGGAGGCGGUUAAUCGAAUUUUCUGCGGAUGCCUCCAAA,< 1e-05 s⁻¹,–,–,–,–
AUAAAAGCGGCAGAACUACAGAAAUGUAGUUGACGAGGAGGAGGUUUAUCGUAUUUUCCGCGGAUGCCUCCAAA,< 1e-05 s⁻¹,< 1e-05 s⁻¹,< 1e-05 s⁻¹,< 1e-05 s⁻¹,–
AUAAAAGCGACAGAACUACAGAAAUGUAGUUGACGAGGAGGACGUUUAUCGAAUUUUCGGCGGAUGCCUCCAAA,< 1e-05 s⁻¹,< 1e-05 s⁻¹,< 1e-05 s⁻¹,–,< 1e-05 s⁻¹
